From the Human Domainome abundance scans (Beltran et al. 2025)

B1: Histone-lysine N-methyltransferase 2A, residues 1148 to 1194; numbered along this chain, Q03164 (parent)
chain: KGRRSRRCGQCPGCQVPEDCGVCTNCLDKPKFGGRNIKKQCCKMRKC

Variants of: B1
Assay: abundance fitness (aPCA) (normalised: wild type 0, dead -1); higher = more abundant; growth selection in yeast, the domain comes from the species named
Conditions: Homo sapiens

Abundance fitness, by site and new letter:
V22: S 0.061 | C -0.311 | P -0.769 | K -0.079 | N -0.28 | M -0.385 | W -0.246 | R -0.021 | D -0.322 | Y -0.053 | L -0.166 | E -0.158 | F -0.009 | G -0.319 | Q 0.079 | H -0.046
N25: I 0.121 | H -0.374 | Q -0.481 | G -0.342 | T -0.325 | K -0.633 | F -0.377 | S 0.024 | R -0.599 | A -0.078 | Y -0.148 | D -0.233 | M -0.084 | L -0.536 | W -0.107 | V -0.02
T24: W -0.392 | I -0.345 | Y -0.238 | F -0.412 | P -0.091 | V -0.479 | H -0.069 | K -0.297 | N -0.521 | C -0.441 | M -0.149 | E 0.038 | A -0.143 | Q -0.067 | L -0.477 | S -0.256 | G -0.207 | R -0.611
C23: G -0.648 | R -0.884 | I -0.505 | V -0.814 | P -0.736 | Y -0.987 | Q -0.623 | W -1.03 | H -1.07 | K -1 | D -0.516 | N -0.766 | A -0.675 | F -1 | E -0.543 | T -0.641
D28: T -1.09 | P -0.937 | C -0.868 | F -0.856 | V -0.374 | W -1.05 | G -0.461 | R -0.618 | Y -0.657 | S -0.626 | M -0.761 | K -0.752 | A -0.475 | I -0.628 | Q -0.509 | L -0.921 | N -0.326 | H -1 | E -0.502
C20: Y -0.994 | W -0.95
C26: R -0.602 | E -0.81 | D -0.76 | Y -0.851 | H -0.988 | K -0.785 | V -1.04 | W -0.778 | F -0.991 | L -0.902 | P -0.75 | M -0.876 | G -0.974 | T -0.959 | S -1.02 | A -0.914
K29: Q -0.427 | E -0.519 | S -0.416 | G -0.463 | R -0.368 | P -0.58 | W -0.686 | D -0.411 | V -0.51 | F -0.648 | H -0.618 | Y -0.564 | N -0.55 | T -0.397 | L -0.671 | M -0.408
G21: L -0.626 | D -0.872 | I -0.995 | C -0.805 | E -0.677 | F -0.684 | Y -0.769 | V -0.7 | M -0.278 | P -0.857 | R -0.416 | T -0.894 | W -0.88 | H -0.375 | Q -0.918 | S -0.542 | N -0.767
L27: G -0.583 | E -0.129 | H -0.34 | F -0.353 | N -0.518 | A -0.257 | C -0.569 | V -0.539 | Q -0.064 | K -0.293 | D -0.419 | R -0.35 | W -0.554 | Y -0.334 | P -0.799 | S -0.554
P30: K -0.669 | D -0.77 | Q -0.381 | S -0.303 | E 0.109 | G -0.213 | H -0.26 | V -0.594 | A -0.187 | T -0.312 | N 0.057 | L -0.361 | I -0.256 | F -0.705 | R -0.432
